Results published in patent US20160002357A1 (Pfizer, published 2016).

Biological target: T1, P-cadherin-ECD1-3-Fc protein (human P-cadherin-Fc) (human, UniProt P22223 108-440)
T1 construct: Construct was expressed with signal peptide and pro-peptide (PACE co-transfected to process the propeptide); not shown: hinge and CH2 and CH3 domains of human IgG1
Test: phage scFv ELISA, coated P-cadherin-ECD1-3-Fc
Description: P-cadherin-ECD1-3-Fc protein or negative control protein was coated overnight at 4° C. on 96-well Nunc Maxisorp® plates (Thermo Fisher Scientific, Madison, Conn.) at a concentration of 2 μg/mL in PBS+Ca²⁺ and Mg²⁺. Plates were washed three times using PBS+Ca²⁺ and Mg²⁺ and blocked for 1 hour at room temperature in 3% milk/PBS+Ca²⁺ and Mg²⁺. Phage samples prepared as described above were added to the blocked plates for 1 hour at room temperature. Plates were washed three times with PBS+Ca²⁺ and Mg²⁺ prior to the addition of secondary antibody (anti M13-HRP 1:2000, GE Healthcare, Piscataway, N.J.). Plates were incubated for a further 1 hour at room temperature and washed six times with PBS+Ca²⁺ and Mg²⁺. Signal was developed using TMB (SurModics, Eden Prairie, Minn.), the reaction stopped with H₂SO₄ and the absorbance read at 450 nm on an EnVision® plate reader (Perkin Elmer, Waltham, Mass.).

T1 sequence (P22223 108-440): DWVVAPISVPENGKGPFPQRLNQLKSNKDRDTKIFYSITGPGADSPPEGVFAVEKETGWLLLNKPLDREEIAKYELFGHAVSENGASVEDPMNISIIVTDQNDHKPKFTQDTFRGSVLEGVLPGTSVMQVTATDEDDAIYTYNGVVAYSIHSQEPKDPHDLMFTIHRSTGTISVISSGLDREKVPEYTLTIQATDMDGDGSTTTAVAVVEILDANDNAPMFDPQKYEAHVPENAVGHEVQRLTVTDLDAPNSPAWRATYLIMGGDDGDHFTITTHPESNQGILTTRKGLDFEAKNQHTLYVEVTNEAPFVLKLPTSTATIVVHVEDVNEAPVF

Binder	% of binding of Clone #153 to human P-cadherin-Fc [%]	Human P-cadherin-Fc binding (OD450)	Z Score
anti-P-cadherin scFv 153 alanine-mutant H1.1-Ala (scFv, V domains shown, scFv on phage) VH: EVQLVQSGAEVKKPGASVKVSCKASAYTFTSYGISWVRQAPGQGLEWMGWISAYNGNTNYAQKLQGRVTMTTDTSTSTAYMELRSLRSDDTAVYYCATIDTANAFGIWGQGTMVTVSS VL: QSVLTQPPSVSAAPGQKVTISCSGSSSNIGNNYVSWYQQLPGTAPKLLIYDNNKRPSGIPDRFSGSKSGTSATLGITGLQTGDEADYYCGTWDSSLSGVVFGGGTKLTVL	135	1.79	0.7
anti-P-cadherin scFv 153 alanine-mutant H1.6-Ala (scFv, V domains shown, scFv on phage) VH: EVQLVQSGAEVKKPGASVKVSCKASGYTFTAYGISWVRQAPGQGLEWMGWISAYNGNTNYAQKLQGRVTMTTDTSTSTAYMELRSLRSDDTAVYYCATIDTANAFGIWGQGTMVTVSS VL: QSVLTQPPSVSAAPGQKVTISCSGSSSNIGNNYVSWYQQLPGTAPKLLIYDNNKRPSGIPDRFSGSKSGTSATLGITGLQTGDEADYYCGTWDSSLSGVVFGGGTKLTVL	149	1.97	1
anti-P-cadherin scFv 153 alanine-mutant H1.10-Ala (scFv, V domains shown, scFv on phage) VH: EVQLVQSGAEVKKPGASVKVSCKASGYTFTSYGIAWVRQAPGQGLEWMGWISAYNGNTNYAQKLQGRVTMTTDTSTSTAYMELRSLRSDDTAVYYCATIDTANAFGIWGQGTMVTVSS VL: QSVLTQPPSVSAAPGQKVTISCSGSSSNIGNNYVSWYQQLPGTAPKLLIYDNNKRPSGIPDRFSGSKSGTSATLGITGLQTGDEADYYCGTWDSSLSGVVFGGGTKLTVL	161	2.13	1.3
anti-P-cadherin scFv 153 alanine-mutant H1.4-Ala (scFv, V domains shown, scFv on phage) VH: EVQLVQSGAEVKKPGASVKVSCKASGYTATSYGISWVRQAPGQGLEWMGWISAYNGNTNYAQKLQGRVTMTTDTSTSTAYMELRSLRSDDTAVYYCATIDTANAFGIWGQGTMVTVSS VL: QSVLTQPPSVSAAPGQKVTISCSGSSSNIGNNYVSWYQQLPGTAPKLLIYDNNKRPSGIPDRFSGSKSGTSATLGITGLQTGDEADYYCGTWDSSLSGVVFGGGTKLTVL	177	2.33	1.6
anti-P-cadherin scFv 153 alanine-mutant H1.9-Ala (scFv, V domains shown, scFv on phage) VH: EVQLVQSGAEVKKPGASVKVSCKASGYTFTSYGASWVRQAPGQGLEWMGWISAYNGNTNYAQKLQGRVTMTTDTSTSTAYMELRSLRSDDTAVYYCATIDTANAFGIWGQGTMVTVSS VL: QSVLTQPPSVSAAPGQKVTISCSGSSSNIGNNYVSWYQQLPGTAPKLLIYDNNKRPSGIPDRFSGSKSGTSATLGITGLQTGDEADYYCGTWDSSLSGVVFGGGTKLTVL	167	2.21	1.4
anti-P-cadherin scFv 153 alanine-mutant H2.5-Ala (scFv, V domains shown, scFv on phage) VH: EVQLVQSGAEVKKPGASVKVSCKASGYTFTSYGISWVRQAPGQGLEWMGWISAANGNTNYAQKLQGRVTMTTDTSTSTAYMELRSLRSDDTAVYYCATIDTANAFGIWGQGTMVTVSS VL: QSVLTQPPSVSAAPGQKVTISCSGSSSNIGNNYVSWYQQLPGTAPKLLIYDNNKRPSGIPDRFSGSKSGTSATLGITGLQTGDEADYYCGTWDSSLSGVVFGGGTKLTVL	34	0.45	-1.4
anti-P-cadherin scFv 153 alanine-mutant H1.7-Ala (scFv, V domains shown, scFv on phage) VH: EVQLVQSGAEVKKPGASVKVSCKASGYTFTSAGISWVRQAPGQGLEWMGWISAYNGNTNYAQKLQGRVTMTTDTSTSTAYMELRSLRSDDTAVYYCATIDTANAFGIWGQGTMVTVSS VL: QSVLTQPPSVSAAPGQKVTISCSGSSSNIGNNYVSWYQQLPGTAPKLLIYDNNKRPSGIPDRFSGSKSGTSATLGITGLQTGDEADYYCGTWDSSLSGVVFGGGTKLTVL	129	1.71	0.6
anti-P-cadherin scFv 153 alanine-mutant H2.1-Ala (scFv, V domains shown, scFv on phage) VH: EVQLVQSGAEVKKPGASVKVSCKASGYTFTSYGISWVRQAPGQGLEWMGAISAYNGNTNYAQKLQGRVTMTTDTSTSTAYMELRSLRSDDTAVYYCATIDTANAFGIWGQGTMVTVSS VL: QSVLTQPPSVSAAPGQKVTISCSGSSSNIGNNYVSWYQQLPGTAPKLLIYDNNKRPSGIPDRFSGSKSGTSATLGITGLQTGDEADYYCGTWDSSLSGVVFGGGTKLTVL	103	1.37	0.1
anti-P-cadherin scFv 153 alanine-mutant H2.3-Ala (scFv, V domains shown, scFv on phage) VH: EVQLVQSGAEVKKPGASVKVSCKASGYTFTSYGISWVRQAPGQGLEWMGWIAAYNGNTNYAQKLQGRVTMTTDTSTSTAYMELRSLRSDDTAVYYCATIDTANAFGIWGQGTMVTVSS VL: QSVLTQPPSVSAAPGQKVTISCSGSSSNIGNNYVSWYQQLPGTAPKLLIYDNNKRPSGIPDRFSGSKSGTSATLGITGLQTGDEADYYCGTWDSSLSGVVFGGGTKLTVL	138	1.83	0.8
anti-P-cadherin scFv 153 alanine-mutant H2.6-Ala (scFv, V domains shown, scFv on phage) VH: EVQLVQSGAEVKKPGASVKVSCKASGYTFTSYGISWVRQAPGQGLEWMGWISAYAGNTNYAQKLQGRVTMTTDTSTSTAYMELRSLRSDDTAVYYCATIDTANAFGIWGQGTMVTVSS VL: QSVLTQPPSVSAAPGQKVTISCSGSSSNIGNNYVSWYQQLPGTAPKLLIYDNNKRPSGIPDRFSGSKSGTSATLGITGLQTGDEADYYCGTWDSSLSGVVFGGGTKLTVL	80	1.06	-0.4
anti-P-cadherin scFv 153 alanine-mutant H2.2-Ala (scFv, V domains shown, scFv on phage) VH: EVQLVQSGAEVKKPGASVKVSCKASGYTFTSYGISWVRQAPGQGLEWMGWASAYNGNTNYAQKLQGRVTMTTDTSTSTAYMELRSLRSDDTAVYYCATIDTANAFGIWGQGTMVTVSS VL: QSVLTQPPSVSAAPGQKVTISCSGSSSNIGNNYVSWYQQLPGTAPKLLIYDNNKRPSGIPDRFSGSKSGTSATLGITGLQTGDEADYYCGTWDSSLSGVVFGGGTKLTVL	166	2.2	1.4
anti-P-cadherin scFv 153 alanine-mutant H2.8-Ala (scFv, V domains shown, scFv on phage) VH: EVQLVQSGAEVKKPGASVKVSCKASGYTFTSYGISWVRQAPGQGLEWMGWISAYNGATNYAQKLQGRVTMTTDTSTSTAYMELRSLRSDDTAVYYCATIDTANAFGIWGQGTMVTVSS VL: QSVLTQPPSVSAAPGQKVTISCSGSSSNIGNNYVSWYQQLPGTAPKLLIYDNNKRPSGIPDRFSGSKSGTSATLGITGLQTGDEADYYCGTWDSSLSGVVFGGGTKLTVL	162	2.14	1.3
anti-P-cadherin scFv 153 alanine-mutant H2.7-Ala (scFv, V domains shown, scFv on phage) VH: EVQLVQSGAEVKKPGASVKVSCKASGYTFTSYGISWVRQAPGQGLEWMGWISAYNANTNYAQKLQGRVTMTTDTSTSTAYMELRSLRSDDTAVYYCATIDTANAFGIWGQGTMVTVSS VL: QSVLTQPPSVSAAPGQKVTISCSGSSSNIGNNYVSWYQQLPGTAPKLLIYDNNKRPSGIPDRFSGSKSGTSATLGITGLQTGDEADYYCGTWDSSLSGVVFGGGTKLTVL	114	1.5	0.3
anti-P-cadherin scFv 153 alanine-mutant H1.3-Ala (scFv, V domains shown, scFv on phage) VH: EVQLVQSGAEVKKPGASVKVSCKASGYAFTSYGISWVRQAPGQGLEWMGWISAYNGNTNYAQKLQGRVTMTTDTSTSTAYMELRSLRSDDTAVYYCATIDTANAFGIWGQGTMVTVSS VL: QSVLTQPPSVSAAPGQKVTISCSGSSSNIGNNYVSWYQQLPGTAPKLLIYDNNKRPSGIPDRFSGSKSGTSATLGITGLQTGDEADYYCGTWDSSLSGVVFGGGTKLTVL	174	2.3	1.6
anti-P-cadherin scFv 153 alanine-mutant H1.8-Ala (scFv, V domains shown, scFv on phage) VH: EVQLVQSGAEVKKPGASVKVSCKASGYTFTSYAISWVRQAPGQGLEWMGWISAYNGNTNYAQKLQGRVTMTTDTSTSTAYMELRSLRSDDTAVYYCATIDTANAFGIWGQGTMVTVSS VL: QSVLTQPPSVSAAPGQKVTISCSGSSSNIGNNYVSWYQQLPGTAPKLLIYDNNKRPSGIPDRFSGSKSGTSATLGITGLQTGDEADYYCGTWDSSLSGVVFGGGTKLTVL	27	0.36	-1.5
anti-P-cadherin scFv 153 alanine-mutant H1.5-Ala (scFv, V domains shown, scFv on phage) VH: EVQLVQSGAEVKKPGASVKVSCKASGYTFASYGISWVRQAPGQGLEWMGWISAYNGNTNYAQKLQGRVTMTTDTSTSTAYMELRSLRSDDTAVYYCATIDTANAFGIWGQGTMVTVSS VL: QSVLTQPPSVSAAPGQKVTISCSGSSSNIGNNYVSWYQQLPGTAPKLLIYDNNKRPSGIPDRFSGSKSGTSATLGITGLQTGDEADYYCGTWDSSLSGVVFGGGTKLTVL	155	2.05	1.2
anti-P-cadherin scFv 153 alanine-mutant H1.2-Ala (scFv, V domains shown, scFv on phage) VH: EVQLVQSGAEVKKPGASVKVSCKASGATFTSYGISWVRQAPGQGLEWMGWISAYNGNTNYAQKLQGRVTMTTDTSTSTAYMELRSLRSDDTAVYYCATIDTANAFGIWGQGTMVTVSS VL: QSVLTQPPSVSAAPGQKVTISCSGSSSNIGNNYVSWYQQLPGTAPKLLIYDNNKRPSGIPDRFSGSKSGTSATLGITGLQTGDEADYYCGTWDSSLSGVVFGGGTKLTVL	179	2.36	1.7
